Legend:
Assay in all cases: mGppNHp-bound
[1] = molecular target: T1, RAC1 V85D/S88D (so in the source); residue 88 of RAC1 is Ala by the legend of Figure 2) (human, UniProt P63000 1-179, V85D | S88D (Ala-88 in RAC1))
RAC1 T25K/N26D [2] = molecular target: T2, RAC1 T25K/N26D (human, UniProt P63000 1-179, T25K | N26D)
CDC42 T25K/N26D [3] = molecular target: T3, CDC42 T25K/N26D (human, UniProt P60953 1-178, T25K | N26D)
[4] = molecular target: T4, RHOA-to-RAC1 variant (RHOA K27T, D28N, E47M, E54N, D76Q) (human, UniProt P61586 1-181, K27T | D28N | E47M | E54N | D76Q)
T4 sequence (P61586 1-181 K27T/D28N/E47M/E54N/D76Q): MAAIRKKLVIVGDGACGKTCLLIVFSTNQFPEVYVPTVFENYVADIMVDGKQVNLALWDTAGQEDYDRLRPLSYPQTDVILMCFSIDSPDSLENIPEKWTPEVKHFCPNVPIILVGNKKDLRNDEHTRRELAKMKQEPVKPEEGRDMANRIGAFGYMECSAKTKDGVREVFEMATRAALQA

RAC1 M45E/N52E [5] = molecular target: T5, RAC1 M45E/N52E (human, UniProt P63000 1-179, M45E | N52E)
[6] = molecular target: T6, CDC42 M45E/N52E (so in the source); residue 52 of CDC42 is given as T52 in the discussion) (human, UniProt P60953 1-178, M45E | N52E (T52 in CDC42))
T6 sequence (P60953 other isoform, or with tags, fused parts or gaps M45E | N52E (T52 in CDC42) | M45E N52E): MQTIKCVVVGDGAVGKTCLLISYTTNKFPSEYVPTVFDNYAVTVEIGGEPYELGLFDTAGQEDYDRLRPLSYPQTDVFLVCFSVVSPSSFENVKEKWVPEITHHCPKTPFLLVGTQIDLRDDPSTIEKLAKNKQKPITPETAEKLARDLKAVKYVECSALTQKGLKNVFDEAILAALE

CDC42 Q74D [7] = molecular target: T7, CDC42 Q74D (human, UniProt P60953 1-178, Q74D)
T7 sequence (P60953 1-178 Q74D): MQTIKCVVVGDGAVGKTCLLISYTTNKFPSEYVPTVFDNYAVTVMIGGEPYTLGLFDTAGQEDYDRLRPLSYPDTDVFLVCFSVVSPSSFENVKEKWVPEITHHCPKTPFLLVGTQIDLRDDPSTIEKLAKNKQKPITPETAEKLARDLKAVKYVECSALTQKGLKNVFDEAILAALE

CDC42 V85D/S88D [8] = molecular target: T8, CDC42 V85D/S88D (human, UniProt P60953 1-178, V85D | S88D)
T8 sequence (P60953 1-178 V85D/S88D): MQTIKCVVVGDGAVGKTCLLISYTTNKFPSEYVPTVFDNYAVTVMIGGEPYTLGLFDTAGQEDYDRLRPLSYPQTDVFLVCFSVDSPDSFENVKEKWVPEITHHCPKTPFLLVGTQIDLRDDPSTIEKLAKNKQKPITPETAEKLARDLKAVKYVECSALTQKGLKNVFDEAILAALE

RAC1 Q74D [9] = molecular target: T9, RAC1 Q74D (human, UniProt P63000 1-179, Q74D)
RAC2 (aa 1-192) = RAC2 (aa 1-192) (human, UniProt P15153 1-192)
RHOG (aa 1-178) [10] = molecular target: T10, RHOG (aa 1-178) (human, UniProt P84095 1-178)
T10 sequence (P84095 1-178): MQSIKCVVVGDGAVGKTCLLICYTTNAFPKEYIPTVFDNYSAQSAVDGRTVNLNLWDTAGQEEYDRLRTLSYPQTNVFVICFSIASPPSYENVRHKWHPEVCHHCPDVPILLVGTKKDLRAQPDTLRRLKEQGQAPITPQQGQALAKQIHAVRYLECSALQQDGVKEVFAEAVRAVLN

CDC42 (aa 1-178) [11] = molecular target: T11, CDC42 (aa 1-178) (human, UniProt P60953 1-178)
T11 sequence (P60953 1-178): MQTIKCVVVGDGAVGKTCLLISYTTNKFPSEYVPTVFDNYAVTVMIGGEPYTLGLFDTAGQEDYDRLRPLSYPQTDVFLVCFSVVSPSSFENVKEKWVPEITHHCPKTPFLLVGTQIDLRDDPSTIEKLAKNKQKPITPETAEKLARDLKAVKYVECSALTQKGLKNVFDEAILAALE

RAC1 (aa 1-179) [12] = molecular target: T12, RAC1 (aa 1-179) (human, UniProt P63000 1-179)
RAC3 (aa 1-192) [13] = molecular target: T13, RAC3 (aa 1-192) (human, UniProt P60763 1-192)
[14] = molecular target: T1, RAC1 V85D/S88D (so in the source); residue 88 …; remark: listed apart in the source
RAC1 T25K/N26D [15] = molecular target: T2, RAC1 T25K/N26D; remark: listed apart in the source
CDC42 T25K/N26D [16] = molecular target: T3, CDC42 T25K/N26D; remark: listed apart in the source
[17] = molecular target: T4, RHOA-to-RAC1 variant (RHOA K27T, D28N, …); remark: listed apart in the source
RAC1 M45E/N52E [18] = molecular target: T5, RAC1 M45E/N52E; remark: listed apart in the source
[19] = molecular target: T6, CDC42 M45E/N52E (so in the source); residue 52 …; remark: listed apart in the source
CDC42 Q74D [20] = molecular target: T7, CDC42 Q74D; remark: listed apart in the source
CDC42 V85D/S88D [21] = molecular target: T8, CDC42 V85D/S88D; remark: listed apart in the source
RAC1 Q74D [22] = molecular target: T9, RAC1 Q74D; remark: listed apart in the source
RHOG (aa 1-178) [23] = molecular target: T10, RHOG (aa 1-178); remark: listed apart in the source
CDC42 (aa 1-178) [24] = molecular target: T11, CDC42 (aa 1-178); remark: listed apart in the source
RAC1 (aa 1-179) [25] = molecular target: T12, RAC1 (aa 1-179); remark: listed apart in the source
RAC3 (aa 1-192) [26] = molecular target: T13, RAC3 (aa 1-192); remark: listed apart in the source

T3 sequence (P60953 1-178 T25K/N26D): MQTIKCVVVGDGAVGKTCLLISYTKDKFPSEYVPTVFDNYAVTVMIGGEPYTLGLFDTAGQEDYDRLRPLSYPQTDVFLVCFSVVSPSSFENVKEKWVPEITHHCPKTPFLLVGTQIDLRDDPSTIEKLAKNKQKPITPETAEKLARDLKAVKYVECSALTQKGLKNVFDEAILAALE

B1: IQGAP1^C794 (C-terminal half of human IQGAP1 with the GRD, RGCT and CT domains) (domain or fragment)
chain: DPPMVVVRKFVHLLDQSDQDFQEELDLMKMREEVITLIRSNQQLENDLNLMDIKIGLLVKNKITLQDVVSHSKKLTKKNKEQLSDMMMINKQKGGLKALSKEKREKLEAYQHLFYLLQTNPTYLAKLIFQMPQNKSTKFMDSVIFTLYNYASNQREEYLLLRLFKTALQEEIKSKVDQIQEIVTGNPTVIKMVVSFNRGARGQNALRQILAPVVKEIMDDKSLNIKTDPVDIYKSWVNQMESQTGEASKLPYDVTPEQALAHEEVKTRLDSSIRNMRAVTDKFLSAIVSSVDKIPYGMRFIAKVLKDSLHEKFPDAGEDELLKIIGNLLYYRYMNPAIVAPDAFDIIDLSAGGQLTTDQRRNLGSIAKMLQHAASNKMFLGDNAHLSIINEYLSQSYQKFRRFFQTACDVPELQDKFNVDEYSDLVTLTKPVIYISIGEIINTHTLLLDHQDAIAPEHNDPIHELLDDLGEVPTIESLIGESSGNLNDPNKEALAKTEVSLTLTNKFDVPGDENAEMDARTILLNTKRLIVDVIRFQPGETLTEILETPATSEQEAEHQRAMQRRAIRDAKTPDKMKKSKSVKEDSNLTLQEKKEKIQTGLKKLTELGTVDPKNKYQELINDIARDIRNQRRYRQRRKAELVKLQQTYAALNSKATFYGEQVDYYKSYIKTCLDNLASKGKVSKKPREMKGKKSKKISLKYTAARLHEKGVLLEIEDLQVNQFKNVIFEISPTEEVGDFEVKAKFMGVQMETFMLHYQDLLQLQYEGVAVMKLFDRAKVNVNLLIFLLNKKFYGK
How did the koff [1] turn out when B1 was run?
The koff was 2.84 s⁻¹.

And the koff (RAC1 T25K/N26D [2])?
Its koff is 2.01 s⁻¹.

What about the koff (CDC42 T25K/N26D [3]) of the same binder?
Its koff is 0.48 s⁻¹.

And the koff [4]?
Its koff is 2.1 s⁻¹.

What about the koff (RAC1 M45E/N52E [5]) of the same binder?
The koff was 1.4 s⁻¹.

What about the koff [6] of the same binder?
The koff was 0.95 s⁻¹.

What about the koff (CDC42 Q74D [7]) of the same binder?
The koff was 1.19 s⁻¹.

What about the koff (CDC42 V85D/S88D [8]) of the same binder?
Its koff is 0.88 s⁻¹.

And the koff (RAC1 Q74D [9])?
Its koff is 0.74 s⁻¹.

What about the koff (RAC2 (aa 1-192)) of the same binder?
The koff was 0.08 s⁻¹.

What about the koff (RHOG (aa 1-178) [10]) of the same binder?
The koff was 0.56 s⁻¹.

And the koff (CDC42 (aa 1-178) [11])?
Its koff is 0.39 s⁻¹.

And the koff (RAC1 (aa 1-179) [12])?
The koff was 0.65 s⁻¹.

What about the koff (RAC3 (aa 1-192) [13]) of the same binder?
Its koff is 0.69 s⁻¹.

And the Kd [14]?
Its Kd is 10500 nM.

And the Kd (RAC1 T25K/N26D [15])?
The Kd was 15300 nM.

And the Kd (CDC42 T25K/N26D [16])?
Its Kd is 920 nM.

What about the Kd [17] of the same binder?
Its Kd is 1750 nM.

And the Kd (RAC1 M45E/N52E [18])?
The Kd was 8200 nM.

What about the Kd [19] of the same binder?
The Kd was 1230 nM.

And the Kd (CDC42 Q74D [20])?
The Kd was 1320 nM.

And the Kd (CDC42 V85D/S88D [21])?
The Kd was 1200 nM.

And the Kd (RAC1 Q74D [22])?
The Kd was 6100 nM.

What about the Kd (RHOG (aa 1-178) [23]) of the same binder?
The Kd was 490 nM.

What about the Kd (CDC42 (aa 1-178) [24]) of the same binder?
Its Kd is 290 nM.

What about the Kd (RAC1 (aa 1-179) [25]) of the same binder?
Its Kd is 930 nM.

And the Kd (RAC3 (aa 1-192) [26])?
Its Kd is 450 nM.

— PMC8625570 (2021)
